US20220332804A1 (CSL INNOVATION, published 2022)

Key:
Assay in all cases: SPR, antibody captured, C2 as analyte;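 note: biacore SPR at 37 °C, anti-C2 mAbs captured via goat anti-human IgG on CM5 chips, double-referenced sensorgrams fit to a 1:1 kinetic or steady-state model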
human C2 S720A = target: T1, human C2 S720A (human, UniProt P06681 21-752)
T1 sequence: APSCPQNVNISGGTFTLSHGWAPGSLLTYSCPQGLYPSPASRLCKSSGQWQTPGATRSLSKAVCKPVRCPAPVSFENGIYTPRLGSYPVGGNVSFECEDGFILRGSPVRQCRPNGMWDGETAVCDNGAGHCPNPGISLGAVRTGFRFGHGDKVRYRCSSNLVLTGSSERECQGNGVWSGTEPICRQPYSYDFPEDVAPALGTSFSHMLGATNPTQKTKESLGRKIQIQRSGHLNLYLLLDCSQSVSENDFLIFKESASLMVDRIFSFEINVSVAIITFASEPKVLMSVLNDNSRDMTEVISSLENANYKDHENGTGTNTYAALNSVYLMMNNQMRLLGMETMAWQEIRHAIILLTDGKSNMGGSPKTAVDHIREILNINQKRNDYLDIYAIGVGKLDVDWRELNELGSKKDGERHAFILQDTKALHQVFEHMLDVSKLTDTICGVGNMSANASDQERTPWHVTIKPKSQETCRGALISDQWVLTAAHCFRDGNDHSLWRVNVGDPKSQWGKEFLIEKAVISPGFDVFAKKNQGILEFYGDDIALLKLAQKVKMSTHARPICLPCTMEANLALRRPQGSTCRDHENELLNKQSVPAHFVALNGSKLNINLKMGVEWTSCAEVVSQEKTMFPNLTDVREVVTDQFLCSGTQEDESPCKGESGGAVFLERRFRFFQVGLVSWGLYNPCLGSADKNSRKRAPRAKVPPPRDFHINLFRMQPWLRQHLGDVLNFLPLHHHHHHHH

human C2 P486A = target: T2, human C2 P486A (human, UniProt P06681 21-752)
T2 sequence: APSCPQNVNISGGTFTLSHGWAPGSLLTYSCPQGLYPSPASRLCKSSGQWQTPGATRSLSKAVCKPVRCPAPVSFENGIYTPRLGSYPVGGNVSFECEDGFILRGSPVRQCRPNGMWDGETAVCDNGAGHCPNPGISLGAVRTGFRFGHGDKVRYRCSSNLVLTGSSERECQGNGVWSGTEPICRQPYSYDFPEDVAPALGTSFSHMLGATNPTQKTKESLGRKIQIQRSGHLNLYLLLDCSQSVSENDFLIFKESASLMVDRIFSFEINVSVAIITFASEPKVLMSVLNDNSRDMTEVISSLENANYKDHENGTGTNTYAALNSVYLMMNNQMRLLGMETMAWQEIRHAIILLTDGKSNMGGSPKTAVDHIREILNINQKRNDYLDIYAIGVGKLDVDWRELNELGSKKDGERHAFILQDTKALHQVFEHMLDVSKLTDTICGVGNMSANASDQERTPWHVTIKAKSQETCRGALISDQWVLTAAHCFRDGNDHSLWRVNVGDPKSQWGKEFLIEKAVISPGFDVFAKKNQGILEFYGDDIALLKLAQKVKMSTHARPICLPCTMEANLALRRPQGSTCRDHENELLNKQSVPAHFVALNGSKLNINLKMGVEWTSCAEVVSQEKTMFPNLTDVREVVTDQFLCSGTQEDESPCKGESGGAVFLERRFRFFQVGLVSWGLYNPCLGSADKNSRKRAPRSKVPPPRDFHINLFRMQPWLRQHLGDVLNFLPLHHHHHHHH

human C2 R519A = target: T3, human C2 R519A (human, UniProt P06681 21-752)
T3 sequence: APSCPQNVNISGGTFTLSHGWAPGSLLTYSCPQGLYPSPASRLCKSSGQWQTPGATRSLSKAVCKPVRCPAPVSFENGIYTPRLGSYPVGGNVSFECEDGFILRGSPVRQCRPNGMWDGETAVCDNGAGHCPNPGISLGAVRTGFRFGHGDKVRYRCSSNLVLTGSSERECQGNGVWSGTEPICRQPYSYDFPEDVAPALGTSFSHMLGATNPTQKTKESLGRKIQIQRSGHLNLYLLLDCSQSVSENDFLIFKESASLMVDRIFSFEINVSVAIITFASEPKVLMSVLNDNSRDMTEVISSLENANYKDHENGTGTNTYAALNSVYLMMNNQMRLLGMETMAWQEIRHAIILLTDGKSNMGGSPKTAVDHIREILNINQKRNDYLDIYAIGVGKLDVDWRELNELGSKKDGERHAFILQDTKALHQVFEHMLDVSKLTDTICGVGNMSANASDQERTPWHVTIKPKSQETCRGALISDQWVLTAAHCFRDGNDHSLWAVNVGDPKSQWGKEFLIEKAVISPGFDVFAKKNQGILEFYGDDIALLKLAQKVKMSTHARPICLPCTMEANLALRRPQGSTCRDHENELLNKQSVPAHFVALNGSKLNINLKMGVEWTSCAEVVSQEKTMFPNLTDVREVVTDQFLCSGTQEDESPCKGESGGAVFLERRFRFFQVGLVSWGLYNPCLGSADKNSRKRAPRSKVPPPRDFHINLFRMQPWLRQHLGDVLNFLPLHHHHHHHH

human C2 N703A = target: T4, human C2 N703A (human, UniProt P06681 21-752)
T4 sequence: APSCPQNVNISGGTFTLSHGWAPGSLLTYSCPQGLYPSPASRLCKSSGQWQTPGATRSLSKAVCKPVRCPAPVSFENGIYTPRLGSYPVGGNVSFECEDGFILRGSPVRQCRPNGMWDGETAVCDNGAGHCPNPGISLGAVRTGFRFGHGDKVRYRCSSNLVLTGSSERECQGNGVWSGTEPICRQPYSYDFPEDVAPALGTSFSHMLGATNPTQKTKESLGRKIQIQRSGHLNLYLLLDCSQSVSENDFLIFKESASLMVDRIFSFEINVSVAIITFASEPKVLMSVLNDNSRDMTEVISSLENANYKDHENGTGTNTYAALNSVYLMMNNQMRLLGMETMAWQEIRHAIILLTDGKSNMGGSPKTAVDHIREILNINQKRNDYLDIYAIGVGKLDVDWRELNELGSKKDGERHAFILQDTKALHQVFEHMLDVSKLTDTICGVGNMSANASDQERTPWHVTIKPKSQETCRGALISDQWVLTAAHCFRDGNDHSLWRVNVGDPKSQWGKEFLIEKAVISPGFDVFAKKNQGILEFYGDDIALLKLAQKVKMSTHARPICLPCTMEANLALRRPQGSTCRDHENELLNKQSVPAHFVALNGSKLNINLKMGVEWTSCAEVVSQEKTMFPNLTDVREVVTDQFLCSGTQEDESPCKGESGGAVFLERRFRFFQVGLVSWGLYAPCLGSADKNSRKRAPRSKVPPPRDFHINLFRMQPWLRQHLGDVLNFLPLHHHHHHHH

B1: RF16-226 (antibody, human IgG4 S228P, lambda)
heavy: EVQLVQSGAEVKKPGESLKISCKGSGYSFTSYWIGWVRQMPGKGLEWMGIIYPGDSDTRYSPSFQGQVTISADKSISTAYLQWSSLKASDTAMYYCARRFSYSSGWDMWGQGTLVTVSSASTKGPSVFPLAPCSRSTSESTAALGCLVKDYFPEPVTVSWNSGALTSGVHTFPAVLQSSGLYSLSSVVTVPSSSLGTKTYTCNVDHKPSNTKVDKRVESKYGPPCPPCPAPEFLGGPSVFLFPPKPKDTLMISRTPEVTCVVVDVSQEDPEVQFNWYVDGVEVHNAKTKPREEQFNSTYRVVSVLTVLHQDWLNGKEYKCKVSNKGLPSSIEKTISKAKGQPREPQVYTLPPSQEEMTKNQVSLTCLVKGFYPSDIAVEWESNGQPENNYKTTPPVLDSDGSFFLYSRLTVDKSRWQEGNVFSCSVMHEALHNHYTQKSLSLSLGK
light: SYELTQPPSVSVSPGQTARITCSGDALTSKYVAWYQQKSGLAPLLVIYEDTRRPSGIPAKFSGSSSGSVATLTISGAHGDDEADYYCYSTDASGHQRVFGGGTKLTVLSQPKAAPSVTLFPPSSEELQANKATLVCLISDFYPGAVTVAWKADGSPVKAGVETTKPSKQSNNKYAASSYLSLTPEQWKSHRSYSCQVTHEGSTVEKTVAPTECS
notes: pH-dependent anti-C2 antibody from a phage display library; also called WT
Kd (human C2 S720A): 14.6 nM
Kd (human C2 P486A): 11.1 nM
Kd (human C2 R519A): 11.2 nM
Kd (human C2 N703A): 292 nM
